From patent US20030145347 come the findings set out here.

The target of data set [1] is rice thioredoxin with S-tag (recombinant, expressed in E. coli from pNOV4113).
Data set [2] deals with soybean thioredoxin prep without S-tag (recombinant, expressed in E. coli from pNOV4112, S-Tag removed by thrombin cleavage).
Data set [3] deals with soybean thioredoxin with S-tag (recombinant, expressed in E. coli from pNOV4112).
The target in data set [4] is wheat thioredoxin with S-tag (recombinant, expressed in E. coli from pNOV4114).

B1: E. coli thioredoxin reductase (T-7915, Sigma, St. Louis, Mo.) (protein)
chain: GTTKHSKLLILGSGPAGYTAAVYAARANLQPVLITGMEKGGQLTTTTEVENWPGDPNDLTGPLLMERMHEHATKFETEIIFDHINKVDLQNRPFRLNGDNGEYTCDALIIATGASARYLGLPSEEAFKGRGVSACATCDGFFYRNQKVAVIGGGNTAVEEALYLSNIASEVHLIHRRDGFRAEKILIKRLMDKVENGNIILHTNRTLEEVTGDQMGVTGVRLRDTQNSDNIESLDVAGLFVAIGHSPNTAIFEGQLELENGYIKVQSGIHGNATQTSIPGVFAAGDVMDHIYRQAITSAGTGCMAALDAERYLDGLADAK
Take B1: the “reduction of thioredoxin, DTNB assay” value in data set [1] is “can also reduce rice thioredoxin”; in data set [2], “can reduce soybean thioredoxin with and without the S-tag”; in data set [3], “can reduce soybean thioredoxin with and without the S-tag”; in data set [4], “Wheat thioredoxin can be reduced by E. coli thioredoxin reductase”.
